# Assay results as given in patent US12692302B2, “Uses of IL-13 antagonists for treating atopic dermatitis” (Genentech, Inc., priority 2016, dated 2026).
# Where two headings read alike, the source gives them in different places.
# Columns and labels:
# [1] = system: patients with persistent moderate to severe atopic dermatitis inadequately controlled by TCS; test: Clinical Study I: safety, Weeks 0 to 20; type: in vivo, human
# Excerpt: Safety Follow-Up Period. All patients who completed study treatment during the placebo-controlled treatment period (Weeks 1-12) were followed for safety for an additional 8 weeks (Weeks 13-20). During this safety follow-up period, patients were no longer required to apply the topical treatment regimen as specified during the run-in and treatment periods. Instead, triamcinolone acetonide 0.1% cream and/or hydrocortisone 2.5% cream could be applied as determined by the patient and the study investigator. At each study visit the patient was required to bring their TCS containers to the study site to be weighed. Patients were encouraged to continue applying emollients at least once daily to xerotic skin. An escalation in therapy for AD was allowed at any during the study, if, in the opinion of the investigator, it was clinically indicated.
# Safety Outcome Measures. The safety outcome measures for this study were as follows: (i) frequency and severity of treatment-emergent adverse events; (ii) incidence of human anti-therapeutic antibodies (ATA) at baseline and during the study; (iii) frequency and severity of skin and other organ system infections throughout the study; the clinical definition of skin infection was as follows: the diagnosis of infection was based on the Investigator's clinical assessment including but not limited to the presence of honey-colored crusting, serous discharge, pustules, or pain at the site of rash and that may be associated with systemic features, including fever or a flare in AD disease (defined above); and (iv) incidence of disease rebound following discontinuation of study drug as assessed by the investigator; the clinical definition of disease rebound was: a significant worsening of disease severity after cessation of therapy to a severity level that is greater than prior to commencing therapy (Hijnen et al., J Eur Acad Dermatol Venereol 2007; 21(1) 85-9).
# [2] = system: moderate-to-severe asthmatic patients not controlled on inhaled corticosteroids; conditions: all doses (37.5, 125, 250 mg Q4W), cited from earlier work
# [3] = 125 mg Q4W + TCS (n = 50), Weeks 0 to 20
# [4] = 125 mg SD + TCS (n = 54), Weeks 0 to 20
# [5] = 250 mg SD + TCS (n = 52), Weeks 0 to 20
# [6] = all lebrikizumab groups (n = 156), Weeks 0 to 20
# [7] = lebrikizumab-treated patients, all doses
substance,measurement,setting,value
"lebrikizumab: monoclonal humanized anti-IL-13 IgG4 antibody; heavy chain SEQ ID NO: 11, light chain SEQ ID NO: 12; formulated at 125 mg/mL in prefilled syringe","AE leading to withdrawal from study drug, %",[1]; [3],(4) %
same,"Conjunctivitis allergic, %",[1]; [3],(4.0) %
same,"Injection site reactions, %",[1]; [3],(4) %
same,"Patients with at least one AE, %",[1]; [3],(54) %
same,"Patients with at least one serious AE, %",[1]; [3],(4) %
same,"SAE leading to withdrawal from study drug (Myopathy), %",[1]; [3],(2) %
same,"AE leading to withdrawal from study drug, %",[1]; [4],(2) %
same,"Conjunctivitis allergic, %",[1]; [4],(7.4) %
same,"Patients with at least one AE, %",[1]; [4],(70) %
same,"Patients with at least one serious AE, %",[1]; [4],(6) %
same,"AE leading to dose modification/interruption, %",[1]; [5],(2) %
same,"Conjunctival hyperaemia, %",[1]; [5],(1.9) %
same,"Conjunctivitis allergic, %",[1]; [5],(3.8) %
same,"Patients with at least one AE, %",[1]; [5],(75) %
same,"Conjunctival hyperaemia, %",[1]; [6],(0.6) %
same,"Conjunctivitis allergic, %",[1]; [6],(5.1) %
same,"Patients with at least one serious AE, %",[1]; [6],(3) %
same,"SAE leading to withdrawal from study drug (Myopathy), %",[1]; [6],(1) %
same,"Conjunctival infections, irritations and inflammations: patients with at least one AE, %","[1]; human, in vivo",(5.8) %
same,"Conjunctival infections, irritations and inflammations: total number of events","[1]; human, in vivo",10
same,Herpes infections: total number of infections related to study drug (investigator-assessed),"[1]; human, in vivo",0
same,"Infections, %","[1]; human, in vivo",(36) %
same,maximum eosinophil count in the five patients with eosinophil-associated AEs,"[1]; human, in vivo",0.91-3.2 ×10^9/L
same,"Eosinophil-associated AEs, % of patients",[1]; [7],3.2%
same,"Eosinophil-associated AEs, number of patients",[1]; [7],five
same,"patients with a conjunctivitis AE, %",[1]; pooled lebrikizumab group,9.6%
same,"deaths, events of anaphylaxis, malignancy, or protocol-defined parasitic or targeted intracellular infections of interest",[1]; whole study,no deaths
same,reduction in the rate of asthma exacerbations,[2]; biomarker-high (serum periostin-high) patients,60%
same,reduction in the rate of asthma exacerbations,[2]; biomarker-low (serum periostin-low) patients,5%
